No end group written: not given here. *: point of attachment. Biotin = O=C1N[C@H]2[C@H](CS[C@H]2CCCCC(=O)*)N1
Key:
Aβ1-42 peptide = molecular target: T1, Aβ1-42 peptide (Homo sapiens, UniProt P05067); assay: Experiment of inhibition of amyloid β fibrillogenesis (thioflavine T fluorescence); type: biochemical; settings: peptide 1.65, 16.5, 33 nM; Aβ1-42 40 μM, phosphate buffer pH 7.0; 0, 6, 24 hours; FIG. 8
T1 construct: Aβ1-42 was dissolved at a concentration of 40 μM in 20 mM phosphate buffer
Procedure: The synthesized peptide (TAT-B6-L1, B6-L1-TAT, TAT-B7-C15, or TAT-B7-S15) was added at various concentrations (1.65 nM, 16.5 nM, and 33 nM) to the Aβ1-42 peptide diluted to 40 μM using 20 mM phosphate buffer (pH 7.0). The sample (10 μl) was recovered 0, 6, and 24 hours thereafter, 90 μl of 11 μM thioflavine T (Sigma)/phosphate buffer was added, and fluorescence intensity at 482 nm generated by the excitation light at 450 nm was measured using a multilabel plate counter, Wallac 1420 ARVO sx (Perkin-Elmer; Wellesley, Mass.).
Results of measuring activity of inhibiting Aβ1-42 fibrillogenesis by a fusion peptide of TAT and B6-L1, B7-C15, or B7-S15 are shown in FIG. 8. The experiment of inhibition of fibrillogenesis was conducted according to the procedures described in the experiment of inhibition of fibrillogenesis above.

B6 scFv = assay: ELISA: binding of B6 scFv to plate-coated synthesized TAT fusion peptide; design: species or system human; settings: ELISA plate coated with peptide 200 ng/well; B6 scFv at various concentrations; FIG. 7
Procedure: (5) The fusion peptide of TAT and B6-L1 was recognized by B6 scFv (FIG. 7). An ELISA plate was coated with the synthesized peptide TAT-B6-L1 or B6-L1-TAT under conditions of 200 ng/well. After addition of B6 scFv at various concentrations, binding activity thereof was inspected. A control peptide used was an unrelated peptide (GSGGGSCGYWRSEWGLCG)(SEQ ID NO: 32).

[1] = molecular target: T2, Aβ oligomers and Aβ fibers (Homo sapiens, UniProt P05067); assay: Experiment of precipitation of Aβ conformers by biotinylated peptide with streptavidin-magnet beads, Western blot; type: binding; settings: biotinylated peptide added 1.5 hours after dissolution of Aβ1-42, FIG. 9
T2 construct: Aβ1-42 was dissolved at a concentration of 40 μM in 20 mM phosphate buffer
Procedure: Aβ1-42 was dissolved at a concentration of 40 μM in 20 mM phosphate buffer (pH 7.0). The TAT-B6-L1 or TAT-B7-C15 peptide adjusted to 40 μM was added 1.5 hours thereafter at a ratio of 1:1 by liquid volume, and the reaction was allowed to proceed at 37° C. for 1 hour (final concentration: Aβ (20 μM)/synthesized peptide (20 μM)). After the reaction, an aliquot thereof was sampled as a sample before immunoprecipitation (“Before precipitation”), and the remaining sample was reacted with M-280 streptavidin-magnet beads (Dynal Biotech, Oslo, Norway) adjusted to 20 μg/μl on ice for 1 hour at a ratio of 1:1 by liquid volume (final concentration: Aβ (10 μM)/synthesized peptide (10 μM)/beads (10 μg/μl)). After the reaction, the beads were precipitated using a magnet to obtain “Supernatant.” To the precipitated beads, PBS was added in a liquid volume equal to that of the recovered supernatant to obtain a “Precipitate.” Each obtained sample was electrophoresed and subjected to Western blot analysis using anti-Aβ antibodies.
Aβ1-42 was dissolved at a concentration of 40 μM in 20 mM phosphate buffer (pH 7.0). The biotinylated TAT-B6-L1 or TAT-B7-C15 peptide was added thereto 1.5 hours thereafter, and the conjugates were precipitated using streptavidin-magnet beads.

T1 sequence (P05067 672-713 limits assumed): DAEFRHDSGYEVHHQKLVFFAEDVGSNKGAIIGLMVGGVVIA
T2 sequence (P05067 672-713 limits assumed): as above
B6 scFv, sequence (as listed by the source): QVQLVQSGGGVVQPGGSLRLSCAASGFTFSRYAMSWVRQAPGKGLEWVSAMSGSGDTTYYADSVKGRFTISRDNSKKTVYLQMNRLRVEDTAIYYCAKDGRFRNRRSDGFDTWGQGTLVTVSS
B6 scFv, sequence (as listed by the source): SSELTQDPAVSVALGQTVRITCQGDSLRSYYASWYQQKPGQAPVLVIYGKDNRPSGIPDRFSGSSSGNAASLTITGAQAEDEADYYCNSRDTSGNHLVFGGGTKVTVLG

| Substance | activity of inhibiting Aβ1-42 fibrillogenesis (Aβ1-42 peptide) | binding activity of B6 scFv to coated peptide (B6 scFv) | precipitation of Aβ oligomers or Aβ fibers by the peptide [1] |
| --- | --- | --- | --- |
| TAT-B7-S15: B7-S15 sequence having a TAT sequence fused at the amino terminus, SEQ ID NO: 27 (Biotin-YGRKKRRQRRRSYGTKPWMSG) | demonstrated to have the activity of inhibiting fibrillogenesis |  |  |
| B6-L1-TAT: B6-L1 sequence having a TAT sequence fused at the carboxyl terminus, SEQ ID NO: 25 (Biotin-GMLDIFAPIRHVYGRKKRRQRRR) | demonstrated to have the activity of inhibiting fibrillogenesis | Binding reaction dependent on the amount of B6 scFv was observed |  |
| GSGGGSCGYWRSEWGLCG (Designed peptide based on the sequence unrelated to B6 scFv) [control peptide, reference compound] | no inhibiting activity |  | No precipitation reaction was observed |
| TAT-B7-C15: B7-C15 sequence (glycine added to carboxyl terminus) having a TAT sequence fused at the amino terminus, SEQ ID NO: 26 (Biotin-YGRKKRRQRRRCYGTKPWMCG; cysteine pairing not given here) | demonstrated to have the activity of inhibiting fibrillogenesis |  | such Aβ oligomers or Aβ fibers were observed in the precipitate |
| TAT-B6-L1: B6-L1 sequence having a TAT sequence fused at the amino terminus, SEQ ID NO: 24 (Biotin-YGRKKRRQRRRGMLDIFAPIRHV) | demonstrated to have the activity of inhibiting fibrillogenesis | Binding reaction dependent on the amount of B6 scFv was observed | such Aβ oligomers or Aβ fibers were observed in the precipitate |
